In patent publication US20030170730A1, “Assay method, peptides and reagent kits for testing mrp-specific inhibitors” (priority 2000, published 2003):

Experiments:
MRP1 variants = MRP1 variants (Homo sapiens, UniProt P33527); test: Vanadate-dependent nucleotide trapping by MRP1 variants in Sf9 membranes; conditions: L0 peptide co-expressed with ΔMRP1
MDCKII-ΔMRP1 cells = test: Immunolocalization of L0 co-expressed with ΔMRP1 in MDCKII monolayers (rescue to plasma membrane); format: cell-based; conditions: pool of puromycin resistant MDCKII-ΔMRP1 cells
From the text: L0 was detected by indirect immunofluorescence with mAb R1 (green color, light signal in the lateral membrane). […] The arrow head indicates the position where the section was made. Nucleic acids were counterstained with propidium iodide (red signal).
For expression of MRP1 variants in MDCKII cells, the L0MDR1 chimera, ΔMRP1, and MRP1Δ(223-232) were inserted as blunt-end fragments into the retroviral vector pCMV-neo as described [Bakos É et al, (1998), see above]. For co-expression experiments the L0 fragment was cloned into the pBabe-Puro-CMV vector (kindly provided by Dr. J. Wijnholds, The Netherlands Cancer Institute, Amsterdam, The Netherlands). This vector was generated by cloning the blunt-ended HindIII fragment from pCMV-neo (containing the CMV early promoter) into the blunt-ended BamHI site of the pBabe-puro vector [Morgenstern J. P., and Land, H. (1990) Nucleic Acids Res. 18, 3587-3596]. Cells were retrovirally-transduced as described before [Evers, R. Kool, M., van Deemter, L., Janssen, H., Calafat, J., Oomen, L. C., Paulusma, C. C., Oude Elferink R. P., Baas, F., Schinkel, A. H., and Borst P. (1998) J. Clin Invest. 101, 1310-1319]. MDCKII cells stably transduced with the pBabe-Puro or pCMV-neo vector were selected for 4-6 days in medium containing puromycin (3 μg/ml) or for 7 days in medium containing G-418 (800 μg/ml), respectively. […]

ΔMRP1 = molecular target: T1, ΔMRP1 (Homo sapiens, UniProt P33527); test: Restoration of ΔMRP1 transport activity by L0 peptides (vesicular LTC4 / NEM-GS uptake, Sf9 membranes); format: biochemical
T1 construct: An N-terminally truncated MRP1 (amino acids 281-1531); made in house; host or cells: baculovirus-infected Sf9 cells, membrane vesicles
T1 sequence (P33527 281-1531, stated change not applied): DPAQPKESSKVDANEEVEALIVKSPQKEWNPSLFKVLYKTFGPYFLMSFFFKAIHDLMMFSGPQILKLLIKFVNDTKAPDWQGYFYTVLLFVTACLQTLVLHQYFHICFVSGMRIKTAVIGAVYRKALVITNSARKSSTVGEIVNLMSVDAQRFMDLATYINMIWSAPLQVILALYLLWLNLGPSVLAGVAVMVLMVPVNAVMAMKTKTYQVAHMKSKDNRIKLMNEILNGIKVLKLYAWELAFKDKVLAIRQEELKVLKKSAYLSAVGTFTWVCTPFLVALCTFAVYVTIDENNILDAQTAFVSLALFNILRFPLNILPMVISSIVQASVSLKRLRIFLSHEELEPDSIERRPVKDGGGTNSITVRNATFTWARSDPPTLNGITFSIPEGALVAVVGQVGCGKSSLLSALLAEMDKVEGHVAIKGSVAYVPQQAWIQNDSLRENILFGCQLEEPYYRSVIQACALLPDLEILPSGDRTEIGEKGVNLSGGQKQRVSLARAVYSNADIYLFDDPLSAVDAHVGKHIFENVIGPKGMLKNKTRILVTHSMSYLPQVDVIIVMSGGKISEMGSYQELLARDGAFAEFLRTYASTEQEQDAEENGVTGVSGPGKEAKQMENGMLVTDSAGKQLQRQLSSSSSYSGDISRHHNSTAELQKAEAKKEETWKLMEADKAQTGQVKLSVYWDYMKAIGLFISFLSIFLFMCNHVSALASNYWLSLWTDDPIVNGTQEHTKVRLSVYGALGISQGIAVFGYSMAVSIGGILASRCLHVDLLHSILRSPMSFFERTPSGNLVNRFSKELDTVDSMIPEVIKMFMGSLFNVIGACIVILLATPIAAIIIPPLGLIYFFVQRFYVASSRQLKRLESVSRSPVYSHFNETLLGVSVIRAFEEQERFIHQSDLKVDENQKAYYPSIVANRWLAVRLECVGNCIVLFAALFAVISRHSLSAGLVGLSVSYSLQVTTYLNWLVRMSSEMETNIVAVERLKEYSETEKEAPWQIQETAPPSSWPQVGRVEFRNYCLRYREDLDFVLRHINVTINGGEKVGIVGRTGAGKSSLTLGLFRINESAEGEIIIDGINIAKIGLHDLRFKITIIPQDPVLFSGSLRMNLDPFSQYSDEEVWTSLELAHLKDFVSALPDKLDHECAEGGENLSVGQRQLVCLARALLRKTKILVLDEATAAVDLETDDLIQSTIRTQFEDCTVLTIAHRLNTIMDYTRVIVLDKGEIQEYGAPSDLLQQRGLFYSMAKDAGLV
Description: The obtained pCLTRX-L0 vector was cloned to E. coli BL21 (DE3) cells, which in turn were grown in TYBG antibiotic broth (10 g tryptone, 10 g yeast extract, 4 g glucose, pH 7.2, 100 μg/ml ampicillin, 25 μg/ml kanamycine) at 37° C. When OD(600) exceeded 1.1 cells were pelleted by centrifugation, suspended in M9 medium, the incubated at 28° C. for 30 min. Afterwards, expression was induced by IPTG for 2 hours. When the induction was finished, cells were pelleted by centrifugation and the pellet was washed with 20% sacharose, then suspended in a solution comprising 20% agarose, 10 mM Tris and 0.1 μg/ml lysosyme (pH 7.2) and incubated for 30 min at 4° C. then sonicated. The lysed cells were pelleted by centrifugation (20000 g, 20 min). The so obtained lysate was used in the further experiments, for studying the restoration of the transport activity.
In order to correctly determine the transport function of the different MRP1 proteins, we estimated the relative amount of transport-competent inside-out vesicles in the Sf9 membrane preparations [Bakos É. et al, (1998), see above], and corrected the transport rates according to the relative MRP1 expression levels, as determined by immunoblotting.

restoration of nucleotide trapping of ΔMRP1 (MRP1 variants): the full activity was restored
uptake of LTC4 on co-expression with ΔMRP1 (ΔMRP1; at 50 nM LTC4, Sf9 vesicles): about 90 % of MRP1
uptake of NEM-GS on co-expression with ΔMRP1 (ΔMRP1; at 50 μM NEM-GS, Sf9 vesicles): about 40 % of MRP1
B1: L0: amino acids 204-281, representing the N-terminal linker region of MRP1, expressed as a separate peptide (protein, UniProt P33527 204-281, looked up, fragment)
chain: DPNPCPESSASFLSRITFWWITGLIVRGYRQPLEGSDLWSLNKEDTSEQVVPVLVKNWKKECAKTRKQPVKVVYSSKD
modifications: L0 linker region
notes: amino acids 204-281, representing the N-terminal linker region of MRP1, expressed as a separate peptide
localization of L0 (mAb R1 staining) (MDCKII-ΔMRP1 cells): clear lateral plasma membrane staining
